In paper PMC8716136 one finds donor fluorescence (FDD) after 5 uM unlabeled CaM, % of initial intensity data, which are given here for one substance.

The test concerns the target CaMKIIδC-GFP T287A (phosphoresistant) (R. norvegicus). The test is described as follows: FRET or BRET. Background: BRET reads energy transfer from a luciferase to a nearby fluorophore.

The substance “unlabeled CaM (calmodulin) (from UniProt P0DP23 1-149) (natural protein)” had a donor fluorescence (FDD) after 5 uM unlabeled CaM, % of initial intensity of 80%.
